Laboratory results taken from PMC3797041 (PLoS ONE, 2013).

Biological target: T1, Staphylococcal enterotoxin B (Staphylococcus aureus, strain , UniProt P01552)
T1 construct: source: bought: Toxin Technologies
Test: SPR
Conditions: both partners purified

T1 sequence (P01552 28-266): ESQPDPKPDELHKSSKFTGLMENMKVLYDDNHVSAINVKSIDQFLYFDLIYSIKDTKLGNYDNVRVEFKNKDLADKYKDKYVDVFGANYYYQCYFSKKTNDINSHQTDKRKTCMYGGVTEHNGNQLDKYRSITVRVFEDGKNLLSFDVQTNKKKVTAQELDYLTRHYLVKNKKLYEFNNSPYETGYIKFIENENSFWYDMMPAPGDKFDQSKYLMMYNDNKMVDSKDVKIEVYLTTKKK

B1: hybrid ADD (VHH)
VHH: EVQLQASGGGLVQPGGSLRLACQYSGRTFSRAVMGWFRQSPGKEREFVAAIRWTDSRTPHTDSRFTTSSDNFKKTAYLQMNGLKPEDTALYYCTEDTWNSVVTGTAADWSQGTQVTVSS
binding result: no binding

B2: hybrid construct D1A3 (VHH)
VHH: EVQLQASGGGLVQPGGSLRLACQYSGRTFSRAVMGWFRQSPGKEREFVAAISAAPGTAYYAFYADSVRGRFTTSSDNFKKTAYLQMNGLKPEDTALYYCTEDLKMQVAAYMNQRSVDYWSQGTQVTVSS
Kd: 0.56 nM

B3: hybrid DDA (VHH)
VHH: EVQLQASGGGLVQPGGSLRLACQYSGREGTTTVGWFRQSPGKEREFVAAIRWTDSRTPHTDSRFTTSSDNFKKTAYLQMNGLKPEDTALYYCTEDLKMQVAAYMNQRSVDYWSQGTQVTVSS
binding result: no binding

B4: hybrid construct A3D1 (VHH)
VHH: EVQLVESGGGLVQAGDSLRLSCTASGREGTTTVGWFRQAPGKEREFVAAIRWTDSRTPHTDSRFSISADSAKNTVYLQMNSLKPEDTAVYYCAADTWNSVVTGTAADWGQGTQVTVSS
binding result: no binding

B5: hybrid DAD (VHH)
VHH: EVQLQASGGGLVQPGGSLRLACQYSGREGTTTVGWFRQSPGKEREFVAAISAAPGTAYYAFYADSVRGRFTTSSDNFKKTAYLQMNGLKPEDTALYYCTEDTWNSVVTGTAADWSQGTQVTVSS
Kd: 20 nM

B6: hybrid antibody A3C8 (VHH)
VHH: EVQLVESGGGLVQAGDSLRLSCTASGRTLGDYGVAWFRQAPGKEREFVSVISRSTIITDYADSVRGRFSISADSAKNTVYLQMNSLKPEDTAVYYCAVIANPVYATSRNSDDYGHWGQGTQVTVSS
binding result: no binding

B7: hybrid antibody C8A3 (VHH)
VHH: EVQLQASGGGLVQGGDSLRLSCAASGRTFSRAVMGWFRQAPGKEREFVSAISAAPGTAYYAFYADSVRGRFTISRDNAKNAVYLQMNSLKPEDTAVYYCAVDLKMQVAAYMNQRSVDYWGQGTQVTVSS
Kd: 2.7 nM

B8: hybrid AAD (VHH)
VHH: EVQLVESGGGLVQAGDSLRLSCTASGRTFSRAVMGWFRQAPGKEREFVAAISAAPGTAYYAFYADSVRGRFSISADSAKNTVYLQMNSLKPEDTAVYYCAADTWNSVVTGTAADWGQGTQVTVSS
Kd: 12 nM
